Assay results: article PMC4072508, “Genome-Wide Prediction and Validation of Peptides That Bind Human Prosurvival Bcl-2 Proteins” (PLoS Computational Biology, 2014)

T1: Bfl-1, Q16548
T1 chain: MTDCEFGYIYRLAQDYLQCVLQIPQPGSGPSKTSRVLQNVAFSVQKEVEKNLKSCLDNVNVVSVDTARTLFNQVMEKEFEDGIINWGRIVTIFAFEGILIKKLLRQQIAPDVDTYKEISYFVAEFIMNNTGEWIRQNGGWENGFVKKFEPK

T2: Mcl-1, Q07820
T2 chain: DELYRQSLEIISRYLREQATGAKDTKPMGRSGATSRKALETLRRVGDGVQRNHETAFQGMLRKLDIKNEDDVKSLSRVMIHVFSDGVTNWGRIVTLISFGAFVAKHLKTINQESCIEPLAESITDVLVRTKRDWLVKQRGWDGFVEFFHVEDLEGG

T3: Bcl-2, P10415
T3 chain: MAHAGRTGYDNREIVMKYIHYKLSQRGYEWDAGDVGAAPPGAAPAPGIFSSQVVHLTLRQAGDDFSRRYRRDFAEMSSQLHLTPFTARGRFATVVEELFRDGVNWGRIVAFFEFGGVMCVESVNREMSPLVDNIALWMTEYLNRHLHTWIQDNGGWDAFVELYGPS

T4: Bcl-w, Q92843
T4 chain: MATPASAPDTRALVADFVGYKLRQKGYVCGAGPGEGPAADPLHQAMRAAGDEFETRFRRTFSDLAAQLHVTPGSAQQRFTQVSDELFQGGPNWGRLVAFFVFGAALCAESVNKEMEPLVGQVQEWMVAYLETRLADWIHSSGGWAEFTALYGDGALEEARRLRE


target: Bcl-xL, Q07817; assay: peptide SPOT array, c-Myc-tagged receptor at 1 uM or 100 nM, anti-c-Myc-Cy3
Sequence (Q07817 1-209): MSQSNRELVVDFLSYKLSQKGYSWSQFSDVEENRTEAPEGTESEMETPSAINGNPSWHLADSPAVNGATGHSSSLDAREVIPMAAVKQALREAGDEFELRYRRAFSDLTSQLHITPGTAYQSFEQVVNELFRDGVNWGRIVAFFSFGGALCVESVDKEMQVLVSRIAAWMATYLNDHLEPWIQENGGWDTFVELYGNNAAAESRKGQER

SPOT signal as a fraction of Bim BH3's signal on the same receptor and array	Binder
0.85	LMARPAVALHFQSIADGFKEAVRYVL [SOS2]
0.1	SKFVILSAHKLVFIGDTLSRQAKAAD [BCAR1]
1.64	ISSYMVLAPVFGYLGDRYNRKYLMCG [SPNS1]
1.38	ADAIRPRCVELRHLCDDFINGNKKKW [MCF2L2]
0.8	AIILCNVCGNLCTDCDRFLHLHRRTK [MYCBP2]
1.83	FKAWGKFGGAFCRYADEMKEIQERQR [PURB]
1.21	ACGDSVLARMLRELGDSLRRPQLRLW [SLC19A1]
1.24	AELRLFLAQRLRWLCDSCPASRATCV [NBEAL2]
2.03	PAKKMTLSEIYRWICDNFPYYKNAGI [FOXJ2]
1.41	FVGYNSTGAELRHWSDMLANPRRPIA [SYT1]

Target: T1, Bfl-1, Q16548
Assay: as above

SPOT signal as a fraction of Bim BH3's signal on the same receptor and array	Binder
0.43	LMARPAVALHFQSIADGFKEAVRYVL [SOS2]
1.2	ISSYMVLAPVFGYLGDRYNRKYLMCG [SPNS1]
0.29	ADAIRPRCVELRHLCDDFINGNKKKW [MCF2L2]
0.54	AIILCNVCGNLCTDCDRFLHLHRRTK [MYCBP2]
1.05	FKAWGKFGGAFCRYADEMKEIQERQR [PURB]
0.38	ACGDSVLARMLRELGDSLRRPQLRLW [SLC19A1]
0.46	AELRLFLAQRLRWLCDSCPASRATCV [NBEAL2]
0.54	PAKKMTLSEIYRWICDNFPYYKNAGI [FOXJ2]
0.37	FVGYNSTGAELRHWSDMLANPRRPIA [SYT1]

Target: T2, Mcl-1, Q07820
Assay: as above

SPOT signal as a fraction of Bim BH3's signal on the same receptor and array	Binder
1.08	LMARPAVALHFQSIADGFKEAVRYVL [SOS2]
0.06	SKFVILSAHKLVFIGDTLSRQAKAAD [BCAR1]
1.15	ISSYMVLAPVFGYLGDRYNRKYLMCG [SPNS1]
0.22	ADAIRPRCVELRHLCDDFINGNKKKW [MCF2L2]
0.29	AIILCNVCGNLCTDCDRFLHLHRRTK [MYCBP2]
1.16	FKAWGKFGGAFCRYADEMKEIQERQR [PURB]
0.45	ACGDSVLARMLRELGDSLRRPQLRLW [SLC19A1]
1.01	AELRLFLAQRLRWLCDSCPASRATCV [NBEAL2]
0.47	PAKKMTLSEIYRWICDNFPYYKNAGI [FOXJ2]
0.32	FVGYNSTGAELRHWSDMLANPRRPIA [SYT1]

Target: T3, Bcl-2, P10415
Assay: fluorescence polarisation, direct titration of receptor into 10 nM labelled peptide

Kd	Binder
3290 nM	LMARPAVALHFQSIADGFKEAVRYVL [SOS2]
2990 nM	SKFVILSAHKLVFIGDTLSRQAKAAD [BCAR1]
28 nM	ISSYMVLAPVFGYLGDRYNRKYLMCG [SPNS1]
60 nM	ADAIRPRCVELRHLCDDFINGNKKKW [MCF2L2]
1180 nM	AIILCNVCGNLCTDCDRFLHLHRRTK [MYCBP2]
34 nM	FKAWGKFGGAFCRYADEMKEIQERQR [PURB]
237 nM	ACGDSVLARMLRELGDSLRRPQLRLW [SLC19A1]
16 nM	AELRLFLAQRLRWLCDSCPASRATCV [NBEAL2]
130 nM	PAKKMTLSEIYRWICDNFPYYKNAGI [FOXJ2]
> 100000 nM	FVGYNSTGAELRHWSDMLANPRRPIA [SYT1]

Target: T4, Bcl-w, Q92843
Assay: as above

Kd	Binder
5380 nM	LMARPAVALHFQSIADGFKEAVRYVL [SOS2]
3610 nM	SKFVILSAHKLVFIGDTLSRQAKAAD [BCAR1]
871 nM	ISSYMVLAPVFGYLGDRYNRKYLMCG [SPNS1]
1120 nM	ADAIRPRCVELRHLCDDFINGNKKKW [MCF2L2]
4060 nM	AIILCNVCGNLCTDCDRFLHLHRRTK [MYCBP2]
> 1800 nM	FKAWGKFGGAFCRYADEMKEIQERQR [PURB]
29 nM	AELRLFLAQRLRWLCDSCPASRATCV [NBEAL2]
85 nM	PAKKMTLSEIYRWICDNFPYYKNAGI [FOXJ2]
> 4350 nM	FVGYNSTGAELRHWSDMLANPRRPIA [SYT1]

target: Bcl-xL, Q07817; assay: as above

Kd	Binder
> 6900 nM	LMARPAVALHFQSIADGFKEAVRYVL [SOS2]
2540 nM	SKFVILSAHKLVFIGDTLSRQAKAAD [BCAR1]
96 nM	ISSYMVLAPVFGYLGDRYNRKYLMCG [SPNS1]
292 nM	ADAIRPRCVELRHLCDDFINGNKKKW [MCF2L2]
> 10000 nM	AIILCNVCGNLCTDCDRFLHLHRRTK [MYCBP2]
> 100000 nM	FKAWGKFGGAFCRYADEMKEIQERQR [PURB]
1460 nM	ACGDSVLARMLRELGDSLRRPQLRLW [SLC19A1]
10 nM	AELRLFLAQRLRWLCDSCPASRATCV [NBEAL2]
103 nM	PAKKMTLSEIYRWICDNFPYYKNAGI [FOXJ2]
> 6900 nM	FVGYNSTGAELRHWSDMLANPRRPIA [SYT1]

Target: T1, Bfl-1, Q16548
Assay: as above

Kd	Binder
> 3290 nM	LMARPAVALHFQSIADGFKEAVRYVL [SOS2]
4680 nM	SKFVILSAHKLVFIGDTLSRQAKAAD [BCAR1]
278 nM	ISSYMVLAPVFGYLGDRYNRKYLMCG [SPNS1]
> 3370 nM	ADAIRPRCVELRHLCDDFINGNKKKW [MCF2L2]
> 3370 nM	AIILCNVCGNLCTDCDRFLHLHRRTK [MYCBP2]
> 4660 nM	FKAWGKFGGAFCRYADEMKEIQERQR [PURB]
182 nM	ACGDSVLARMLRELGDSLRRPQLRLW [SLC19A1]
3270 nM	AELRLFLAQRLRWLCDSCPASRATCV [NBEAL2]
> 3370 nM	PAKKMTLSEIYRWICDNFPYYKNAGI [FOXJ2]
> 3370 nM	FVGYNSTGAELRHWSDMLANPRRPIA [SYT1]

Target: T2, Mcl-1, Q07820
Assay: as above

Kd	Binder
> 4000 nM	LMARPAVALHFQSIADGFKEAVRYVL [SOS2]
912 nM	SKFVILSAHKLVFIGDTLSRQAKAAD [BCAR1]
19 nM	ISSYMVLAPVFGYLGDRYNRKYLMCG [SPNS1]
> 4000 nM	ADAIRPRCVELRHLCDDFINGNKKKW [MCF2L2]
> 10000 nM	AIILCNVCGNLCTDCDRFLHLHRRTK [MYCBP2]
> 4000 nM	FKAWGKFGGAFCRYADEMKEIQERQR [PURB]
22 nM	ACGDSVLARMLRELGDSLRRPQLRLW [SLC19A1]
3810 nM	AELRLFLAQRLRWLCDSCPASRATCV [NBEAL2]
> 10000 nM	PAKKMTLSEIYRWICDNFPYYKNAGI [FOXJ2]
> 4000 nM	FVGYNSTGAELRHWSDMLANPRRPIA [SYT1]
